B1: GFAP-14 (antibody, V domains shown)
VH: DVQLVESGGGSVQPGGSRKLSCAASGFTFSSFGMHWVRQAPEKGLEWVAYISSDSNTVYYADTVKGRFTISRDNPKNTLFLQMTSLRSEDTAMYYCARYAMDYWGQGTSVTVSS
VL: QIVLTQSPALMSASPGEKVTMTCSASSSVSYMYWYQQKPRSSPKPWIYLTSNLASGVPARFSGSGSGTSYSLTISSMEAEDAATYYCQQWSSNPPTFGAGTKLELK
notes: also called mouse anti-GFAP antibody GFAP-14
B2: GFAP-1 (antibody, V domains shown)
VH: EVHLQQSGTVLARPGASVKMSCKASGYSFTSYWMHWVKQRPGQGLEWIGAFYPENSDTNYNQKFKGKARLTAVTSANTAYMELNSLTNEDSAVYYCTRPLLFSAYFDFWGQGTTLTVSS
VL: DVLMTQTPLSLPVSLGDQASISCRSSQSIVHSYGNTYLEWYLQKPGLSPKLLIYKVSNRFSGVPDRFSGSGSGTDFTLTISRVEAEDLGVYYCFQGSHVPYTFGGGTKLEIK
notes: also called mouse anti-GFAP antibody GFAP-1
B3: GFAP-18 (antibody, V domains shown)
VH: EVILVESGGGLVKPGGSLKVSCAVSGFTFSNFAMSWVRQTPEKRLEWVASISSGGTTYYPDNVKGRFTISRDNARNIMYLQMSSLRSEDTAMYFCARGGLHYFGYWGQGTTLTVSS
VL: DIVMTQSHKFMSTSVGDRVSITCKASQDVNTAVAWYQQKPGQSLKLLIYSASYRYIGVPDRFTGSGSGTDFTFTINSVQAEDLAVYYCHQYYSTPLTFGTGTKLELK
notes: also called mouse anti-GFAP antibody GFAP-18
B4: GFAP-13 (antibody, V domains shown)
VH: EVLLQQSGPELVKPGASVKMSCKTSGYTFANYIMHWVKQTPGQGLEWIGFINPYNDYTEYNEKFKGKATLTSDKSSSTAYMEFSGLTSEDSAVYYCSTATFAYWGQGTLVTVSA
VL: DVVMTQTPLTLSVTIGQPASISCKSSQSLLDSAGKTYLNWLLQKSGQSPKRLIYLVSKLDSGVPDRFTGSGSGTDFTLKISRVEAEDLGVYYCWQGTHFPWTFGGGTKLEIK
notes: also called mouse anti-GFAP antibody GFAP-13
B5: GFAP-15 (antibody, V domains shown)
VH: DVQLVESGGGLLEPGGSRKLSCAASGFTFSSFGMHWVRQAPEKGLEWVAYISSGSRTIFYADTVKGRFTISRDNPKNTLFLQMTSLRSGDTAMYYCVRGGYGSSFDYWGQGTTLTVSS
VL: DVVMTQTPLSLPVSLGDQASISCRSSQSLVYSNGNIYLHWYLQKPGQSPKLLIYKVSNRFSGVPDRFSGSGSGTDFTLKISRVEAEDLGVYFCSQSTHVPYTFGGGTKLEIK
notes: also called mouse anti-GFAP antibody GFAP-15
B6: GFAP-2 (antibody, V domains shown)
VH: DVQLVESGGGLVQPGGSRKLSCAASGFTFSSFGMHWVRQAPEKGLEWVAYISSGSSIIYYADTVKGRFTISRDNPKNTLFLQMTSLRSEDTAMYYCTGSDWGSFAYWGQGTLVTVSA
VL: DVVMTQTPLSLPVSLGDQASISCRSSQSLVYSNGNTYLHWYLQKPGQSPKLLIYKVSNRFFGVPDRFSGSGSGTDFTLKISRVEAEDLGVYFCSQSTHVPYTFGGGTKLEIK
notes: also called mouse anti-GFAP antibody GFAP-2
B7: GFAP-5 (antibody, V domains shown)
VH: EVQLVESGGGLVKPGGSLKLSCAASGFTFSAYGMHWVRQAPEKGLEWIAYISSGSSTIYYADTVKGRFTISRDNAKNTLFLQMTSLRSEDTAMYYCASSYALDYWGQGTSVTVSS
VL: DVVMTQTPLSLPVSLGDQASISCRSSQSLVYSNGNTYLHWYLQKPGQSPKLLIYKVSNRFSGVPDRFSGSGSGTDFTLKISRVEAEDLGVYFCSQSTHVPYTFGSGTKLEIK
notes: also called mouse anti-GFAP antibody GFAP-5
B8: GFAP-16 (antibody, V domains shown)
VH: QVQLQQSDAELVKPGASVKISCKASGYTFTDHTIHWVKQRPEQGLEWIGYIYPGDGSTKYNEKFKGKATLTADKSSSTVYMQLNSLTSEDSAVYFCARPAPYWNFDVWGAGTTVTVSS
VL: DIQMTQSPSSLSASLGGKVTITCKASQDIKKNIAWYQHKPGKGPRLLIWYTSTLQPGIPSRFSGSGSGRDYSFSISNLEPEDIATYYCLQYDHLRTFGGGTKLEIK
notes: also called mouse anti-GFAP antibody GFAP-16
B9: GFAP-12 (antibody, V domains shown)
VH: QVQLQQSGAELMKPGASVKISCKATGYTFSNYWIEWVKQRPGHGLEWIGEILPGSGSTNYNEKFKGKATFTADTSSNTAYMQLSSLTSEDSAVYYCAIYYGNYAGAMDYWGQGTSVTVSS
VL: DIQMTQSPASLSASVGETVTITCRASENIYSYLAWYQQKQGKSPQLLVYNAKTLAEGVPSRFSGSGSGTQFSLKINSLQPEDFGSYYCQLHYGTPYTFGSGTKLEIK
notes: also called mouse anti-GFAP antibody GFAP-12
B10: GFAP-7 (antibody, V domains shown)
VH: EVQLLQSGTVLARPGASVKMSCKASGYSFTSYWMHWIKQRPGQGLEWIGAIHPGNRDTSYNQKFKDKAKLTAVTSASTAYMELSSLTNEDSAVYFCTREDYWGQGTTLTVSS
VL: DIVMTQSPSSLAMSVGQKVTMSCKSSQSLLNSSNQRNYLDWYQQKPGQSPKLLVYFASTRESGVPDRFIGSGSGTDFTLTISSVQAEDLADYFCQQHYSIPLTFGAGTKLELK
notes: Same variable domains as GFAP-8; also called mouse anti-GFAP antibody GFAP-7
B11: GFAP-8 (antibody, V domains shown)
VH: EVQLLQSGTVLARPGASVKMSCKASGYSFTSYWMHWIKQRPGQGLEWIGAIHPGNRDTSYNQKFKDKAKLTAVTSASTAYMELSSLTNEDSAVYFCTREDYWGQGTTLTVSS
VL: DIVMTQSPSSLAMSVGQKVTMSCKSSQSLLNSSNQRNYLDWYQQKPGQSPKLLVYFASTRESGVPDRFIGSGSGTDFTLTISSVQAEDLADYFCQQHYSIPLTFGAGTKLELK
notes: Same variable domains as GFAP-7; also called mouse anti-GFAP antibody GFAP-8
B12: GFAP-4 (antibody, V domains shown)
VH: EVQLLQSGTVLARPGASVKMSCKASGYSFTSYWMHWIKQRPGQGLEWIGAIHPGNRDTSYNQKFKDKAKLTAVTSASTAYMELSSLTNEDSAVYFCTREDYWGQGTTLTVSS
VL: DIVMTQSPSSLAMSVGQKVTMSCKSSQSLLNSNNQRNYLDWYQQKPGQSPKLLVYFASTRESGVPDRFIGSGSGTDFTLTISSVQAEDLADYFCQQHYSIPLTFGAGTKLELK
notes: also called mouse anti-GFAP antibody GFAP-4
B13: GFAP-10 (antibody, V domains shown)
VH: EVKLVESGGGLVKPGGSLKLSCAASGFTFSYYAMSWVRQTPEKRLEWVASISSGGTTYHPDSVKGRFTISRDNARNILYLQMSSLRSEDTAMYYCARGGHWYFDVWGAGTTVTVSS
VL: QIVLTQSPAIMSASPGEKVTMTCSASSSVSYMHWYQQKSGTSPKRWIYDTSKLASGVPARFSGSGSGTSYSLTISSMEAEDAATYYCQQWSTNPLTFGAGTKLDLK
notes: also called mouse anti-GFAP antibody GFAP-10
B14: GFAP-17 (antibody, V domains shown)
VH: EVKLEESGGGLVQPGGSMKLSCVASGFTFSYYWMSWVRQSPEKGLEWIAEIRLKSNIYATHYAASVKGRFTISRDDSKSSVYLQMNNLRAEDTGIYFCTRFGTGAMDYWGQGTSVTVSS
VL: DIVMSQSPSSLAVSVGEKVTMSCKSSQSLLYRTNQKNYLAWYQQKPGQSPKLLIYWASSRESGVPDRFSGSGSGTDFTLTISSVKAEDLAVYYCQQYYSYPWTFGGGTKLEIK
notes: also called mouse anti-GFAP antibody GFAP-17
B15: GFAP-11 (antibody, V domains shown)
VH: QIQLVQSGPELKKPGETVKISCKASGYTFTNYGMNWVKQAPGEGLKWMGWINTNIGEPTYAEEFKGRFAFSLEASASTAYLQINNLKNEDTATYFCARWKNYGYFDYWGQGTTLTVSS
VL: QIVLTQSPAIMSASLGERVTMTCTASSSVSSSYLHWYQQKPGSSPKLWIYSTSNLASGVPARFSGSGSGTSYSLTISSLEAEDAATYYCHQYHRSPYTFGGGTKLEIK
notes: also called mouse anti-GFAP antibody GFAP-11
B16: GFAP-9 (antibody, V domains shown)
VH: DVQLQESGPGLVKPSQSLSLTCSVTGYSITSGFYWSWIRQFPGNKLEWMGYISYDGSNNYNPSLKNRISITRDTSKNQFFLKLNSVTTEDTATYYCARAYGYDGAWFAYWGQGTLVTVSA
VL: DIVMTQSQKFMSTSVGDRVSITCKASQNVRTAVAWYQQKPGQSPKALIYLASNRHTGVPDRFTGSGSGTDFTLTISNVQSEDLADYFCLQHWNNPYTFGGGTKLEIK
notes: also called mouse anti-GFAP antibody GFAP-9
B17: GFAP-3 (antibody, V domains shown)
VH: EVKLEESGGGLVQPGGSMKLSCVASGFTFTNYWMSWVRQSPEKGLEWVAQIRLKSDNYATHYAESVKGRFTISRDDSKSSVYLQMNNLRAEDTGIYYCTGGEFLSWFAYWGQGTLVTVSA
VL: DIVMSQSPSSLAVSAGEKVTMSCKSSQSLFNSRTRKNYLAWYQQKPGQSPKLLIYWASTRESGVPDRFTGSGSGTDFTLTISSVQAEDLAVYYCKQSYYLYTFGSGTKLEIK
notes: also called mouse anti-GFAP antibody GFAP-3
B18: GFAP-19 (antibody, V domains shown)
VH: EVQLVESGGGLVKPGGSPKLSCAASGFAFSSYDMSWVRQTPEKRLEWVAYISSGGGSTYYPDTMKGRFTISRDNAKNTLYLQMSSLKSEDTAMYYCARHYGTYLYYLDYWGQGTTLTVSS
VL: DIVLTQSPATLSVTPGDRVSLSCRASQNISDFLHWYQQKSHESPRLLIKYASQSISGIPSRFSGSGSGSDFTLSINSVEPEDVGVYYCQNGHSFPPTFGGGTKLEIK
notes: also called mouse anti-GFAP antibody GFAP-19
B19: GFAP-6 (antibody, V domains shown)
VH: EVQLQQSGAEFVKPGASVKLSCTASGFNIKDTDMHWVRQRPEQGLESIGLIDPAIGNTKYDPKFQGKATITADTSSNAAYLQLSSLTSEDTAVYYCARSDRYLAWFAYWGQGTLVTVSA
VL: DIVMTQSPATLSVTPGDRVSLSCRASQSISDFLHWYQQKSHGSPRLLIKYSSQSISGIPSRFSGSGSGSDFTLSINSVEPEDVGVYYCQNGHTFPYTFGGGTKLEIK
notes: also called mouse anti-GFAP antibody GFAP-6; HRP-labeled anti-GFAP antibody

In general, Kd refers to the free concentration of one partner at which half of the binding sites on the other are occupied at equilibrium, for simple one-to-one binding. Usually koff stands for the first-order rate constant of dissociation. As a reminder, the kon is a measure of how fast the partners come together.

A value given as a limit tells only on which side of the number the result lay.

In the assay the target is T1, Polyhistidine-tagged recombinant human GFAP expressed from E. coli (human, UniProt P14136 1-432).
T1 construct: also called His-tagged GFAP; not shown: polyhistidine tag
T1 sequence (P14136 whole entry): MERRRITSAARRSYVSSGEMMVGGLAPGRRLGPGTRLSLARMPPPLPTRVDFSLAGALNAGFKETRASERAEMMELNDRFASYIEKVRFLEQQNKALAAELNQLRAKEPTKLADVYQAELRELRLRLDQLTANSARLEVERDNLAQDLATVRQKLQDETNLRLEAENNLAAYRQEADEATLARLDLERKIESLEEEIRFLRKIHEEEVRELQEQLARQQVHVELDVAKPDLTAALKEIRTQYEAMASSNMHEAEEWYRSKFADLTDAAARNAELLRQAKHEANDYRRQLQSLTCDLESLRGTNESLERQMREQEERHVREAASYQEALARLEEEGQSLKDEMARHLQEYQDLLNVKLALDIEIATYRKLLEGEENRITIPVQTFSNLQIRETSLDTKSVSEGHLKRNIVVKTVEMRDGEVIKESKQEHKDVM
The experiment in a line: BLI (Octet QKe); His-tagged GFAP on anti-Penta-HIS sensor, antibody in solution. The protocol:
The rates of association (kₒₙ) and dissociation (koff) of the anti-GFAP antibodies were determined by bio-layer interferometry using an Octet QK^e instrument according to the manufacturer's instructions (ForteBio). See Tobias et al., Biomolecular Binding Kinetic Assays in the Octet Platform, Application Note 14, ForteBio, Div. of Pall Life Sciences, 2013. Polyhistidine-tagged recombinant human GFAP expressed from E. coli was used as the antigen. The antigen was bound at a concentration of 8.3 μg/ml to an anti-Penta-HIS(HIS1K) capture biosensor containing an anti-histidine antibody (ForteBio) for use with the Octet QK^e instrument.
In the case of B1, the Kd was determined as 0.28 nM, the off-rate (koff) was found to be 8.4e-05 s⁻¹ and the kon is 299000 M⁻¹ s⁻¹.
In the same order, the values of B2 are 0.0107 nM, 1.7e-06 s⁻¹ and 162000 M⁻¹ s⁻¹.
The matching figures for B3: 0.0737 nM, 2.5e-05 s⁻¹ and 344000 M⁻¹ s⁻¹.
Turning to B4, the Kd was 0.6 nM, the off-rate constant (koff) was found to be 0.000194 s⁻¹ and the kon is 324000 M⁻¹ s⁻¹.
On to B5, for which the dissociation constant (Kd) is 0.202 nM, the dissociation rate constant (koff) worked out at 0.000231 s⁻¹ and the kon worked out at 1.15e+06 M⁻¹ s⁻¹.
As to B6, the dissociation constant (Kd) came to 0.0557 nM, the off-rate (koff) came out at 3.3e-05 s⁻¹ and the association rate constant (kon) was found to be 593000 M⁻¹ s⁻¹.
Take B7: the Kd was found to be 5.36 nM, the koff turned out to be 0.000107 s⁻¹ and the kon amounted to 20000 M⁻¹ s⁻¹.
In the same order, the values of B8 are 0.273 nM, 4.7e-05 s⁻¹ and 173000 M⁻¹ s⁻¹.
As to B9, the Kd stood at 13.3 nM, the koff was 0.00024 s⁻¹ and the kon is 18000 M⁻¹ s⁻¹.
As to B10, the Kd worked out at 0.856 nM, the koff was 5.8e-05 s⁻¹ and the kon is 67800 M⁻¹ s⁻¹.
With B11, the Kd stood at 1.11 nM, the koff came out at 0.000133 s⁻¹ and the on-rate constant (kon) was found to be 120000 M⁻¹ s⁻¹.
B12: the Kd was 2.93 nM, the koff came to 0.000158 s⁻¹ and the on-rate constant (kon) turned out to be 53700 M⁻¹ s⁻¹.
In the case of B13, the equilibrium dissociation constant (Kd) is under 0.001 nM, the dissociation rate constant (koff) turned out to be 1e-07 s⁻¹ and the on-rate (kon) was determined as 53300 M⁻¹ s⁻¹.
Take B14: the equilibrium dissociation constant (Kd) was found to be 0.208 nM, the koff was found to be 1.8e-05 s⁻¹ and the kon turned out to be 86600 M⁻¹ s⁻¹.
In the same order, the values of B15 are 0.396 nM, 0.000125 s⁻¹ and 315000 M⁻¹ s⁻¹.
In the case of B16, the Kd was 18 nM, the off-rate constant (koff) is 0.000701 s⁻¹ and the on-rate constant (kon) is 39000 M⁻¹ s⁻¹.
The matching figures for B17: 12 nM, 0.000698 s⁻¹ and 58000 M⁻¹ s⁻¹.
As for B18, the Kd came out at 0.423 nM, the koff amounted to 6.4e-05 s⁻¹ and the kon stood at 151000 M⁻¹ s⁻¹.
Consider B19, for which the dissociation constant Kd is 1.07 nM, the koff was 0.000124 s⁻¹ and the on-rate constant (kon) turned out to be 116000 M⁻¹ s⁻¹.

The record behind these values is patent US20210347914A1 (BANYAN BIOMARKERS, published 2021).
